Data set [1] deals with T1, recombinant human SLPI.
T1 chain: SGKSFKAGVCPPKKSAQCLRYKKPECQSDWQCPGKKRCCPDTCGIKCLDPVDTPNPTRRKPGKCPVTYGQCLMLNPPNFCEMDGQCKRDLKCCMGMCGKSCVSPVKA

The target in data set [2] is T2, SLPI present in human saliva.
T2 chain: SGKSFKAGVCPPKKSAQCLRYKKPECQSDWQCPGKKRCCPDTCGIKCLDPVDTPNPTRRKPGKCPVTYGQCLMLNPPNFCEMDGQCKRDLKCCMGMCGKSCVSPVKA

B1: elastase (protein)
chain: IVGGRRARPHAWPFMVSLQLRGGHFCGATLIAPNFVMSAAHCVANVNVRAVRVVLGAHNLSRREPTRQVFAVQRIFENGYDPVNLLNDIVILQLNGSATINANVQVAQLPAQGRRLGNGVQCLAMGWGLLGRNRGIASVLQELNVTVVTSLCRRSNVCTLVRGRQAGVCFGDSGSPLVCNGLIHGIASFVRGGCASGLYPDAFAPVAQFVNWIDSIIQ
On to B1, for which, in data set [1], the “cleavage of rSLPI, LC/MS (1 ug rSLPI, 50 ng protease, 5 hours)” value is “did not result in the formation of the second peak” and the “cleavage of the reduced form of rSLPI” value is “Reduction of the rSLPI samples in the presence of the proteases did result in cleavage of the SLPI protein”. Further, the “cleavage of SLPI in human saliva, Western analysis” value (shortened to “cleavage of SLPI in human saliva”) in data set [2] is on record as “Minor digestion of SLPI was observed after the saliva was incubated with elastase”.

B2: proteinase 3 (protein)
chain: IVGGHEAQPHSRPYMASLQMRGNPGSHFCGGTLIHPSFVLTAAHCLRDIPQRLVNVVLGAHNVRTQEPTQQHFSVAQVFLNNYDAENKLNDVLLIQLSSPANLSASVATVQLPQQDQPVPHGTQCLAMGWGRVGAHDPPAQVLQELNVTVVTFFCRPHNICTFVPRRKAGICFGDSGGPLICDGIIQGIDSFVIWGCATRLFPDFFTRVALYVDWIRSTLR
As to B2, in data set [1], the “cleavage of rSLPI, LC/MS (1 ug rSLPI, 50 ng protease, 5 hours)” value is given as “did not result in the formation of the second peak” and the “cleavage of the reduced form of rSLPI” value is “Reduction of the rSLPI samples in the presence of the proteases did result in cleavage of the SLPI protein”. Moreover, the “cleavage of SLPI in human saliva” value in data set [2] was “The larger SLPI cleavage product was not observed when the saliva samples were incubated with cathepsin G, tryptase and proteinase 3”.

B3: human chymase (protein)
chain: IIGGTECKPHSRPYMAYLEIVTSNGPSKFCGGFLIRRNFVLTAAHCAGRSITVTLGAHNITEEEDTWQKLEVIKQFRHPKYNTSTLHHDIMLLKLKEKASLTLAVGTLPFPSQFNFVPPGRMCRVAGWGRTGVLKPGSDTLQEVKLRLMDPQACSHFRDFDHNLQLCVGNPRKTKSAFKGDSGGPLLCAGVAQGIVSYGRSDAKPPAVFTRISHYRPWINQILQAN
Consider B3, for which, in data set [1], the “cleavage of rSLPI at ten-fold excess of rSLPI (data not shown)” value was “Even in a ten-fold excess of rSLPI to chymase most of the rSLPI protein was cleaved”; the “cleavage of rSLPI, LC/MS (second peak with additional 18 mass units)” value is listed as “the presence of the second peak indicated that chymase indeed cleaved rSLPI”; the “cleavage of rSLPI, SDS-PAGE with Coomassie stain (rSLPI:chymase molar ratio 40:1, 37 C)” value is listed as “cleavage of recombinant human SLPI was observed after rSLPI was incubated with human chymase for about 20 minutes”. In addition, the “cleavage of SLPI in human saliva” value in data set [2] is recorded as “exogenous chymase cleaved SLPI in the saliva sample as it did with the rSLPI”.

B4: cathepsin G (protein)
chain: IIGGRESRPHSRPYMAYLQIQSPAGQSRCGGFLVREDFVLTAAHCWGSNINVTLGAHNIQRRENTQQHITARRAIRHPQYNQRTIQNDIMLLQLSRRVRRNRNVNPVALPRAQEGLRPGTLCTVAGWGRVSMRRGTDTLREVQLRVQRDRQCLRIFGSYDPRRQICVGDRRERKAAFKGDSGGPLLCNNVAHGIVSYGKSSGVPPEVFTRVSSFLPWIRTTMRS
Consider B4, for which, in data set [1], the “cleavage of rSLPI, LC/MS (1 ug rSLPI, 50 ng protease, 5 hours)” value is given as “did not result in the formation of the second peak” and the “cleavage of the reduced form of rSLPI” value is reported as “Reduction of the rSLPI samples in the presence of the proteases did result in cleavage of the SLPI protein”. Also, the “cleavage of SLPI in human saliva” value in data set [2] was “The larger SLPI cleavage product was not observed when the saliva samples were incubated with cathepsin G, tryptase and proteinase 3”.

The values above are taken from patent publication US20070166779.
